We go through one substance from PMC2805770.

For this series the following is noted: phosphorylation at S656.

As for synapsin-I: S656A, the localisation_or_trafficking result is given as “changes”.
